Test results taken from patent publication US20260250338A1 (Molecular Partners, published 2026).

Experiments:
[1] = biological target: T1, CD16aV allotype of human CD16a expressed on Jurkat-Lucia-NFAT-CD16 Reporter cells (InvivoGen) (human, UniProt P08637 17-254); assay: flow cytometry on Jurkat cells expressing CD16aV, conditions as in Example 2
T1 construct: whole, on cells; also called CD16a expressing cells; Jurkat CD16aV

[2] = biological target: T1, CD16aV allotype of human CD16a …; assay: cell-based or functional assay
[3] = biological target: T2, full length human CD16b stably expressed on transduced WT Jurkat cells (human, UniProt O75015 17-200); assay: flow cytometry on Jurkat cells expressing CD16b, conditions as in Example 2
T2 construct: whole, on cells; also called CD16b expressing cells; Jurkat CD16b
T2 sequence (O75015 17-200): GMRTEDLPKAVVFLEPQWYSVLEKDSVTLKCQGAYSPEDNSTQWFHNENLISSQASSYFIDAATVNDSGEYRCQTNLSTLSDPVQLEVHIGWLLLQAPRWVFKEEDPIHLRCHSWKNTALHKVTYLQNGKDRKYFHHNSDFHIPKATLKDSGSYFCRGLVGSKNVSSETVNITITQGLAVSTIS

T1 sequence (P08637 17-254 F176V): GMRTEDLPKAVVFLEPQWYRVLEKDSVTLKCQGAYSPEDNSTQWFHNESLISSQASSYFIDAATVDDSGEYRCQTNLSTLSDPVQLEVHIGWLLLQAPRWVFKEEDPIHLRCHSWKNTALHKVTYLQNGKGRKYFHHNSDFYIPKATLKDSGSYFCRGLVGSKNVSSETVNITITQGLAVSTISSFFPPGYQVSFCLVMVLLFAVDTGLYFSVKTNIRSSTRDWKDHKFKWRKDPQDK

B1: Construct 25 (SEQ ID NO: 94), CD117 × CD16a, CD117 binder SEQ ID NO: 84 N-terminal of DARPin #7 (designed binder)
chain: MRGSHHHHHHGSDLGQKLLKAAQYGQDDEVRILLAAGADVNAKDWAGKTPLHVAAEAGHLEIVEVLLKAGADVNAKDKAGETPLHLAAEQGHLEIVEVLLKAGADVNAQDEWGQTPADLAAYYGLEDIAEVLQKAAGSPTPTPTTPTPTPTTPTPTPTGSDLGQKLLRAAKKGQDDEVRELLKAGADVNAKDEQGWTPLHNAAWKGHLEIVEVLLKAGADVNAKDVFDWTPLHVAAHFGHLEIVEVLLKAGADVNAQDRAGETPADLAAQAGHEDIAEVLQKAA
notes: Bispecific DARPin; also called Construct No. 25
- EC50 [1]: 25.3 nM
- EC50 (pM), DDCC reporter assay (luminescence), Kasumi-1 target cells, E:T 1:1, 24 h [2]: 59.5 pM
- Top (RLU), DDCC reporter assay (luminescence), Kasumi-1 target cells [2]: 36400 RLU
- binding result [3]: no binding
